Measured values as given in patent US20220098591, “STEM-LOOP COMPOSITIONS AND METHODS FOR INHIBITING VASCULAR ENDOTHELIAL GROWTN FACTOR” (DRIVE THERAPEUTICS LLC, published 2022).
Where a chain is given by its changes, count along the chain named.

Legend:
VEGF-A121 [1] = target: T1, VEGF-A121 (Homo sapiens, UniProt P15692 SEQ:1-121); assay: competition; TR-FRET; stem S3 mispaired; settings: tags: glycan-biotinylated for SPR/FRET/AlphaLISA; Acro BioSystems, Biolegend; chain copies: 2 (stated)
Procedure: (§1) Briefly, for competition TR-FRET, 2-fold dilutions of thermally equilibrated aptamers were made in TR-FRET Buffer (50 mM MOPS, pH 7.4, 125 mM NaCl, 5 mM KCl, 50 μM CHAPS, 0.1 mg/mL BSA, 1 mM CaCl₂, and 1 mM MgCl₂). 5 μL of aptamer or control solution was added to a 15 μL mix of glycan biotinylated […] (5 nM final), ALEXA FLUOR® 647-labeled Aptamer (30 nM final), and Streptavidin-Eu (Perkin Elmer; 2.5 nM final) in a black wall low volume 384 well plate (Greiner). For control, 5 μl of 1000-fold excess of unlabeled parent aptamer or 5 μl TR-FRET buffer alone was added to the mix of ALEXA FLUOR® 647-labeled aptamer, biotin-VEGF-A, and Streptavidin-Eu. The plate was covered with a plate seal and subsequently incubated in the dark for 1 hour at room temperature. The plate was read on a Biotek CYTATION™ 5 plate reader. Samples were excited at 330 nm and fluorescent values were collected at 665 nm. Data analysis was performed by subtracting the background value and plotting as percent inhibition, normalized to baseline in the absence of competitor. The values were fit by [Inhibitor] vs. response-Variable slope (four parameters) using GraphPad Prism Version 7.0 and then normalized to aptamer control to obtain an IC₅₀ relative to parent aptamer. Data is presented as log values of relative IC₅₀. […]

VEGF-A121 [2] = target: T1, VEGF-A121; assay: competition; TR-FRET; settings: tags: glycan-biotinylated for SPR/FRET/AlphaLISA; Acro BioSystems, Biolegend; chain copies: 2 (stated)
Procedure: Briefly, for competition TR-FRET, 2-fold dilutions of thermally equilibrated aptamers were made in TR-FRET Buffer (50 mM MOPS, pH 7.4, 125 mM NaCl, 5 mM KCl, 50 μM CHAPS, 0.1 mg/mL BSA, 1 mM CaCl₂, and 1 mM MgCl₂). 5 μL of aptamer or control solution was added to a 15 μL mix of glycan biotinylated […] (5 nM final), ALEXA FLUOR® 647-labeled Aptamer (30 nM final), and Streptavidin-Eu (Perkin Elmer; 2.5 nM final) in a black wall low volume 384 well plate (Greiner). For control, 5 μl of 1000-fold excess of unlabeled parent aptamer or 5 μl TR-FRET buffer alone was added to the mix of ALEXA FLUOR® 647-labeled aptamer, biotin-VEGF-A, and Streptavidin-Eu. The plate was covered with a plate seal and subsequently incubated in the dark for 1 hour at room temperature. The plate was read on a Biotek CYTATION™ 5 plate reader. Samples were excited at 330 nm and fluorescent values were collected at 665 nm. Data analysis was performed by subtracting the background value and plotting as percent inhibition, normalized to baseline in the absence of competitor. The values were fit by [Inhibitor] vs. response-Variable slope (four parameters) using GraphPad Prism Version 7.0 and then normalized to aptamer control to obtain an IC₅₀ relative to parent aptamer. Data is presented as log values of relative IC₅₀.
Starting at position 6, 2′F-G residues were systematically replaced, one at a time, and the activity of the resultant molecule was assessed by competition TR-FRET, as described in Example 7, against the parent molecule, Aptamer 141.

VEGF-A165 [3] = target: T2, VEGF-A165 (Homo sapiens); assay: cell_activity; KDR phosphorylation; >50% at 100 nM with VEGF-A121; settings: tags: glycan-biotinylated for SPR/FRET/AlphaLISA; Acro BioSystems, R&D Systems; chain copies: 2 (inferred)
T2 chain: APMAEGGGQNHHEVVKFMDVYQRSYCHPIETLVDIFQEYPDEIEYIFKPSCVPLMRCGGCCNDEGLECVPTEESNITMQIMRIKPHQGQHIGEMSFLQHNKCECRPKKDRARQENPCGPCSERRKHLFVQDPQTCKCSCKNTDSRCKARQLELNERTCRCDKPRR
Procedure: (§2) Briefly, HEK293 cells engineered to stably overexpress KDR were plated overnight in collagen coated 96 well plates at 50 k cells/well. Aptamers in SB1+ (40 mM HEPES, pH 7.5, 125 mM NaCl, 5 mM KCl, 1 mM MgCl₂) were heated to 90° C. for 3 minutes and allowed to cool to room temperature for a minimum of 10 minutes. […] 15 μL of VEGF-A was added to 15 μL titrated aptamer in a polypropylene plate and diluted to 300 μL with TS buffer (10 mM Tris pH 7.5; 100 mM NaCl; 5.7 mM KCl; 1 mM MgCl₂; 1 mM CaCl₂). The aptamer/VEGF-A mixture was incubated at 37° C. for 30 minutes, after which 100 μL was added to the cells for 5 minutes at 37° C. in 5% CO₂. Treatments were aspirated from cells, and cells were lysed with 100 μL cold lysis buffer [20 mM Tris-HCl, pH 7.5, 150 mM NaCl, 1 mM EDTA, 1% Triton X-100, 0.5 mM sodium orthovanadate (freshly prepared), 1 mM PMSF (freshly prepared), lx protease inhibitor cocktail (freshly prepared)] on ice for 10 minutes. Plates were centrifuged at 4000×g for 10 minutes before transferring the cell lysis to the AlphaLISA® assay plate.
(§3) To perform the AlphaLISA® assay, 10 μL of cell lysis was transferred to a white low volume 384 well Optiplate (Perkin Elmer). […] 10 μL of this reagent mixture was added to the assay plate that contained 10 μL of cell lysate. The assay plate was sealed and incubated in the dark for approximately 2 hours, then was read on a Biotek CYTATION™ 5 plate reader using the Alpha 384 well optical cube. Percent inhibition was calculated by subtracting TS buffer background from each value and normalizing to VEGF-A only controls. The values were fit by using a four-parameter non-linear fit in GraphPad Prism Version 7.0.

VEGF-A121 [4] = target: T1, VEGF-A121; assay: cell_activity; KDR phosphorylation in HEK293-KDR; settings: tags: glycan biotinylated in TR-FRET; Biolegend in the cell assay; chain copies: 2
Procedure: as §2, §3

VEGF-A121 [5] = target: T1, VEGF-A121; assay: competition; TR-FRET; also no pKDR inhibition at 100 nM; settings: tags: glycan-biotinylated for SPR/FRET/AlphaLISA; Acro BioSystems, Biolegend; chain copies: 2 (stated)
Procedure: as §1

VEGF-A110 = VEGF-A110 (Homo sapiens, UniProt P15692 SEQ:1-110); assay: SPR; no binding at highest concentration (500 nM); settings: tags: glycan-biotinylated; chain copies: 2 (stated)
Procedure: (§4) Aptamer 26 was identical in sequence to Aptamer 4.2 but contained a hexylamine linker in place of the C6 disulfide linker at the 5′ terminus. […] Briefly, in the SPR studies, 1.0-2.5 μg/mL of glycan biotinylated VEGF-A₁₆₅, VEGF-A₁₂₁, and VEGF-A₁₁₀ were diluted in HEPES running buffer (10 mM HEPES, 137.5 mM NaCl, 5.7 mM KCl, 1 mM MgCl₂, 1 mM CaCl₂, and 0.05% Tween20; pH 7.4) and immobilized to a streptavidin dextran chip (GE Healthcare Life Sciences) for 1-2 minutes. The chip was then blocked with 0.2 mg/mL biotin in running buffer, followed by 3 cycles of buffer blanks and regenerated with 50 mM NaOH to equilibrate the chip. […] After coating and blocking, samples were screened at 100 nM in duplicate injections at a flow rate of 25 μL/min, with an association time of 3 minutes 20 seconds and a dissociation time of 10 minutes. Regeneration conditions of chips were optimized based on the protein immobilized and effected with either 50 mM NaOH for 30 seconds or 2M guanidine HCl for 2×40 seconds.
(§5) Data was fit to a 1:1 kinetic binding model.

VEGF-A121 [6] = target: T1, VEGF-A121; assay: SPR; no binding at highest concentration (500 nM); settings: tags: glycan-biotinylated for SPR/FRET/AlphaLISA; Acro BioSystems, Biolegend; chain copies: 2 (stated)
Procedure: as §4, §5

VEGF-A165 [7] = target: T2, VEGF-A165; assay: cell_activity; partial (~80%) inhibition of KDR phosphorylation; no inhibition of KDR binding in AlphaLISA; settings: tags: glycan-biotinylated for SPR/FRET/AlphaLISA; Acro BioSystems, R&D Systems; chain copies: 2 (inferred)
Procedure: as §2, with “Plates were centrifuged at 4000×g for 10 minutes before transferring the cell lysis to the AlphaLISA® assay plate.” left out
To perform the AlphaLISA® assay, 10 μL of cell lysis was transferred to a white low volume 384 well Optiplate (Perkin Elmer). […] The assay plate was sealed and incubated in the dark for approximately 2 hours, then was read on a Biotek CYTATION™ 5 plate reader using the Alpha 384 well optical cube. Percent inhibition was calculated by subtracting TS buffer background from each value and normalizing to VEGF-A only controls. […]

VEGF-A165 [8] = target: T2, VEGF-A165; assay: SPR; HBD-binding aptamer; settings: tags: glycan-biotinylated for SPR/FRET/AlphaLISA; Acro BioSystems, R&D Systems; chain copies: 2 (inferred)
Procedure: as §4, §5

B1: Aptamer 185 (ssRNA)
RNA: AGGCCGCCUCCGCGCGGAGGGGUUUCAUUAUAACGUUUGGCGGCUU
modifications: all G 2'-F; A,C,U 2'-OMe; 5' C6NH2; 3' idT
VEGF-A121 [1]
  binding signal: > 100 fold worse IC50 vs Aptamer 26

B2: Aptamer 199 (ssRNA)
RNA: GCCGACCCGCGCGGAGGGGUUUCAUUACCCCGUUUGUCGGC
modifications: all G 2'-F; A,C,U 2'-OMe; Sp3 joins the two parts; 5' C6NH2; 3' idT
VEGF-A121 [2]
  binding signal: ~2 fold better IC50 vs Aptamer 141

B3: Aptamer 29 (ssRNA)
RNA: UAGUCCGCCUCCGCGCGGAGGGGUUUCAUUAUCCCGUUUGGCGGCUUU
modifications: all G 2'-F; A,C,U 2'-OMe; 5' C6NH2; 3' idT
VEGF-A165 [3]
  activity: > 50 % inhibition at 10 nM

B4: Aptamer 29 (ssRNA)
RNA: B3 RNA
modifications: 2'-F G; 2'-OMe A,C,U; 5' C6NH2; 3' idT
VEGF-A121 [4]
  activity: > 50 % inhibition at 100 nM

B5: Aptamer 31 (ssRNA)
RNA: B3 RNA with U4A
modifications: all G 2'-F; A,C,U 2'-OMe; 5' C6NH2; 3' idT
VEGF-A165 [3]
  activity: > 50 % inhibition at 10 nM

B6: Aptamer 31 (ssRNA)
RNA: B3 RNA with U4A
modifications: 2'-F G; 2'-OMe A,C,U; 5' C6NH2; 3' idT
VEGF-A121 [4]
  activity: > 50 % inhibition at 100 nM

B7: Aptamer 32 (ssRNA)
RNA: B3 RNA with U4G, U46C
modifications: all G 2'-F; A,C,U 2'-OMe; 5' C6NH2; 3' idT
VEGF-A165 [3]
  activity: > 50 % inhibition at 10 nM

B8: Aptamer 32 (ssRNA)
RNA: B3 RNA with U4G, U46C
modifications: 2'-F G; 2'-OMe A,C,U; 5' C6NH2; 3' idT
VEGF-A121 [4]
  activity: > 50 % inhibition at 100 nM

B9: Aptamer 27 (ssRNA)
RNA: B3 RNA with U4G, A19G
modifications: all G 2'-F; A,C,U 2'-OMe; 5' C6NH2; 3' idT
VEGF-A121 [5]
  binding signal: > 100 fold worse IC50 vs Aptamer 26

B10: Aptamer 7 (ssRNA)
RNA: CGGAAUCAGUGAAUGCUUAUACAUCCG
modifications: 2'-F C and U; 2'-OMe G and A except AA at positions 4-5; 5' C6NH2; 3' idT
VEGF-A110
  binding result: no binding
VEGF-A121 [6]
  binding result: no binding
VEGF-A165 [7]
  IC50: 2.2 nM
VEGF-A165 [8]
  Kd: 0.6 nM
